Here are results for 2 molecules from patent US20050208042A1 (GENETICS INSTITUTE, published 2005).

Assay [1] has as its target T1, human B7-1 (CD80) expressed on the cell surface (CHO/hB7-1 cells) (human, UniProt P33681 35-288).
T1 construct: whole, on cells; Also used for native B7-1 on human PBL in the MLR; also called rhB7-1
T1 sequence (looked up): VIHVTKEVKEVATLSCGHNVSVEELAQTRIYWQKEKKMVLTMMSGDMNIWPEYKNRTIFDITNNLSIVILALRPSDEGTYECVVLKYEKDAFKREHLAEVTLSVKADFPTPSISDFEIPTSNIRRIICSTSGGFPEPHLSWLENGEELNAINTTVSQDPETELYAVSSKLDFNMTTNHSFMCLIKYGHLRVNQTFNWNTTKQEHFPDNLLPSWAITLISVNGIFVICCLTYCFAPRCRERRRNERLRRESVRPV
Kind of assay: competition binding on CHO cells expressing rhB7-1: unlabeled competitor against 125I-humanized 1F1 tracer, bound/free ratio. As to the method: (§1) The affinity of the mouse and humanized 1F1 antibodies for the B7-1 antigen was determined by competitive binding with radio-iodinated humanized 1F1 antibody. Three-fold serial dilutions of unlabeled mouse or humanized 1F1 antibodies were mixed with a fixed amount of radio-iodinated humanized 1F1 antibody (40,000-50,000 cpm per test) in PBS containing 2% fetal calf serum, 0.1% sodium azide. 3×10⁴ CHO cells expressing cell surface rhB7-1 were added subsequently and the mixture (in a total volume of 200 μL) was incubated for 2 hr at 4° C. with gentle shaking. The cell-antibody suspension was then transferred to Sarstedt Micro Tubes (part #72.702) containing 100 μL of 80% dibutyl phthalate-20% olive oil. After centrifugation in a microfuge, the Sarstedt tubes were plunged into dry ice for several minutes. Cell-bound ¹²⁵I was determined by clipping the tips of each tube (containing cell pellets) into scintillation vials and counting in a gamma counter. Bound and free counts were determined and the ratio plotted against the concentrations of the cold competitor antibodies according to the method of Berzofsky and Berkower (J. A. Berzofsky and I. J. Berkower, in Fundamental Immunology, W. E. Paul, Raven Press, New York, pp. 595-644 (1984)).

Assay [2] concerns the target T2, human B7-2 (CD86) expressed on the cell surface (CHO/hB7-2 cells) (human, UniProt P42081 24-329).
T2 construct: whole, on cells; Also used for native B7-2 on human PBL in the MLR row under functional; also called rhB7-2
T2 sequence (looked up): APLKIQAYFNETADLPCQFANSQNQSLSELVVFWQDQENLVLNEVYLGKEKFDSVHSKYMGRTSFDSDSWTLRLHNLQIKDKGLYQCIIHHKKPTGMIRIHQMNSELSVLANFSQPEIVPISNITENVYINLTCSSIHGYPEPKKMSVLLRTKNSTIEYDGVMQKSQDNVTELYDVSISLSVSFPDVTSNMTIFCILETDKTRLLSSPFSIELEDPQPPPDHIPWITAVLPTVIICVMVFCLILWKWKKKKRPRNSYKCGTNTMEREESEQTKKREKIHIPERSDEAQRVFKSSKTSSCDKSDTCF
In words: 125I direct binding, CHO cells expressing hB7-2 as control for non-specific binding.

The target in assay [3] is T1, human B7-1 (CD80) expressed on the cell …. In words: competitive binding against 125I-murine anti-B7-1 on CHO/hB7-1 cells; murine anti-B7-1 mAb. As to the method:
(§2) The relative affinities of the murine and humanized anti-B7-1 (1F1) antibodies for the B7-1 antigen were determined by competitive binding assays. Three-fold serial dilutions of the unlabeled murine or humanized anti-B7-1 mAbs were mixed with a fixed amount of radio-labeled murine anti-B7-1 mAb (¹²⁵I-anti-B7-1, 2800 cpm/fmol; 40,000-50,000 cpm/test in PBS containing 2% fetal calf serum). 1×10⁵ CHO/hB7-1 cells expressing hB7-1 on their surface were added subsequently and the mixture (total volume=200 μL) incubated for 2 hrs at 4° C. with gentle shaking. The cell antibody mixture was then transferred to Sarstedt Micro tubes (Part # 72.702) containing 100 μL of 80% dibutyl phthlate-20% olive oil. After centrifugation in a microfuge, the Sarstedt tubes were plunged into dry ice for several minutes. Cell bound ¹²⁵I-labeled mAb was determined by clipping the cell pellet containing tips of each tube into scintillation vials and counting in a gamma counter. Bound and free counts were determined. The bound counts were plotted against the concentration of the cold competitor mAbs.

In assay [4] the target is T3, human B7-1Ig (recombinant soluble hB7-1Ig) (human, UniProt P33681 35-242).
T3 construct: extracellular domain; Secreted by CHO cells, purified on protein A, immobilized on the BIACORE chip; not shown: hinge-CH2-CH3 domains of human IgG1 heavy chain
T3 sequence (looked up): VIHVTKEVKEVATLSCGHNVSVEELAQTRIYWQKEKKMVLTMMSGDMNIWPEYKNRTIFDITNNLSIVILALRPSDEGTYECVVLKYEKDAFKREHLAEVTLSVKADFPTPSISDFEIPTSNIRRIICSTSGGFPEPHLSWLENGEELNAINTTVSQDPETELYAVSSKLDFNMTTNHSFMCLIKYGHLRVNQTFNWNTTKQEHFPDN
In words: SPR (BIACORE), hB7-1Ig immobilized, bivalent model, mean of three runs. As to the method: (§3) The BIACORE® biosensor (BIACORE®, Uppsalla, Sweden) was used to determine binding kinetics of murine and humanized anti-B7-1 monoclonal antibodies to human B7-1Ig (hB7-1Ig) protein. Human B7-1Ig was immobilized onto the dextran matrix of a BIACORE® sensor chip. Humanized and murine anti-B7-1 mAbs were tested at 200, 100, 50, and 20 nM on the immobilized hB7-1Ig. Each mAb dilution was tested 4 times per run and a total of three separate runs were performed. Anti-human B7-1Ig binding was measured in real time by Surface Plasmon Resonance (SPR) and global analysis was performed using the bivalent binding model in BIA evaluation software (Version 3.1). For each sample, the association (kₐ) dissociation (kd) and equilibrium dissociation constant (KD) were determined.

For assay [5], the target named is T1, human B7-1 (CD80) expressed on the cell …. In words: competitive binding against 125I-humanized 1F1 on CHO cells expressing rhB7-1. On the procedure:
as §1

For assay [6] the target is unchanged. In words: competition binding on CHO/hB7-1 cells: unlabeled competitor against 125I-murine anti-B7-1 tracer, bound cpm. As to the method: as §2
Assay [7] has the same target. In words: cell-based or functional assay.
For assay [8], the target named is T3, human B7-1Ig (recombinant soluble …). In words: SPR (BIACORE), hB7-1Ig immobilized. On the procedure:
as §3
In general terms: Surface plasmon resonance follows binding to a sensor surface in real time, without labels.

Assay [9] addresses T1, human B7-1 (CD80) expressed on the cell …. Kind of assay: competitive binding against 125I-murine anti-B7-1 on CHO/hB7-1 cells; humanized anti-B7-1 mAb. On the procedure: as §2
Assay [10] shares this target. In words: direct binding of 125I-labeled antibody to CHO/hB7-1 cells, nonspecific binding (CHO cells with hB7-2) subtracted. As to the method:
Binding assays were begun by plating CHO/hB7-1 cells onto 96 well tissue culture plates at 10,000 cells/well in complete medium and the plates incubated at 37° C. for two days. Adherent cells were washed gently with assay buffer (PBS containing nonfat dry milk and sodium azide). Murine and humanized anti-B7-1 mAbs labeled with ¹²⁵I were serially diluted in assay buffer and incubated with the cells overnight at 4° C. to allow biding to reach equilibrium. Unbound labeled antibody was removed from the cells by a series of gentle washings with assay buffer and the bound ¹²⁵I-labeled antibody was detected using a ¹²⁵I scintillant and detector system. Non-specific binding was determined for each dilution of labeled antibody in an identical manner as described above except that the target CHO cells expressed hB7-2 which is not bound by either the murine or humanized anti-B7-1 mAbs.
The mean value of triplicate determinations minus the non-specific binding was calculated and fit to a hyperbolic saturation binding curve using Graphpad Prism software. […] Both murine and humanized anti-B7-1 mAbs recognize cell surface expressed human B7-1.

B1: murine 1F1 monoclonal antibody (murine anti-human B7-1 mAb) (antibody, V domains shown)
VH: EVHLQQSGAELVRPGALVKLSCKPSGFNIKDYYMHWVKQRPEQGLEWIGWIDPENGNTLYDPKFQGKASITADTSSNTAYLQLSSLTSEDTAVYYCAREGLFFAYWGQGTPVTVSA
VL: EIVLTQSPALMAASPGEKVTITCSVSSSISSSNLHWYQQKSETSPKPWIYGTSNLASGVPVRFSGSGSGTSYSLTISSMEAEDAATYYCQQWSSYPLTFGAGTKLELK
notes: Hybridoma mouse antibody with kappa light chain; also called mouse 1F1; murine anti-B7-1
For the molecule B1, the “IC50 (read off the curve)” value in [1] and in assay [6] was roughly 1 nM throughout. In addition, in assay [2], the binding result was “no binding”. The Kd was roughly 1 nM in assay [3] and 0.56 nM in assay [4]. This molecule showed a Ka in [5] of roughly 1e+09 M⁻¹. Further, the “IC50 of inhibition of CD28+ human T cell proliferation stimulated with PMA and CHO/hB7-1 cells” value in assay [7] is 0.22 nM. Moreover, the “fold higher binding affinity than the humanized anti-B7-1 mAb” value in [8] is 5 fold.

B2: humanized anti-B7-1 mAb (humanized 1F1), isotype not stated in the example (antibody, V domains shown)
VH: EVQLVQSGAEVKKPGASVKVSCKPSGFNIKDYYMHWVRQAPGQGLEWIGWIDPENGNTLYDPKFQGKATITADTSTSTAYMELSSLRSEDTAVYYCAREGLFFAYWGQGTLVTVSS
VL: DIQMTQSPSSLSASVGDRVTITCSVSSSISSSNLHWYQQKPGKAPKPLIYGTSNLASGVPSRFSGSGSGTDYTLTISSLQPEDVATYYCQQWSSYPLTFGQGTKVEIK
notes: Same variable regions as m8; also called hu1F1
Broadly, the EC50 (read off the curve) is the midpoint of the concentration-response curve. Turning to B2, the binding result in assay [2] is listed as “no binding”. Moreover, the Kd in [4] was 2.8 nM; in [9], roughly 1 nM. Further, the “IC50 (read off the curve)” value in [6] is roughly 2 nM. Further, the “IC50 of inhibition of CD28+ human T cell proliferation stimulated with PMA and CHO/hB7-1 cells” value in assay [7] was 0.11 nM. The “EC50 (read off the curve)” value in [10] is roughly 1 nM.
